Switch fluorescence ratio data for 79 sequences are collected here from the supplement of paper PMC10126150.

The subject of the data set is ATP. Kind of data set: switch fluorescence ratio, 500 uM ATP over buffer (Cy3 cluster intensity, sum of 5 cycles each) (fold (ratio)); higher = stronger signal-on switching upon ATP binding; sequences stand for … in TCGTCGGCAGCGTCAGATGTGTATAAGAGACAGTTTTTTTTTTTTTTTTTTTTTTTTT…TC. The settings on record: aptamer strand: ATP DNA aptamer (quencher-CACCTGGGGGAGTATTGCGGAGGAAGG + anchor), 100 nM annealed; ATP concentration: 500 uM. The method in brief: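 Per cluster, summed Cy3 intensity from the target cycles was divided by that from the buffer cycles to give the fluorescence ratio, then averaged per switch-domain sequence. Clusters outside 100-1000 RFU were excluded. The Cy3-labelled switching-strand clusters, on a modified Illumina MiSeq flow-cell, were annealed to 100 nM quencher-labelled ATP aptamer and imaged in selection buffer, then after 15 min with 500 uM ATP at 22 °C, for five cycles with NaOH stripping and re-annealing between them.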

± gives the standard deviation of the averaged measurements.
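Also: ATP exposure 15 min at 22 °C before imaging.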

Regarding CCTAAAGTAG, the switch fluorescence ratio turned out to be 1.017 ± 0.0071.
In the case of CCTAAATACC, the switch fluorescence ratio turned out to be 1.29 ± 0.25.
The result for CCTAAATGGG reads 1.01 ± 0.077; that for CCTAACAGGA, 1.01 ± 0.04.
The same measure for CCTAAGGGGG: 1.04 ± 0.074; for CCTAATGCAG: 1.11 ± 0.049.
The result for CCTACCCTCC reads 3.05 ± 0.22; that for CCTACGTGGT, 4.49 ± 0.15; that for CCTAGGGGTC, 1.09 ± 0.028.
Take CCTAGGGGTG: the switch fluorescence ratio is 1.32 ± 0.27.
CCTAGGGTCA: the switch fluorescence ratio came to 1.01 ± 0.018.
The same measure for CCTAGGGTTC: 0.984 ± 0.01; for CCTAGTTGTG: 1.02 ± 0.016; for CCTATGCGGT: 2.6 ± 0.067.
The same measure for CCTATGCTTC: 3.38 ± 1.7; for CCTATGGGGT: 0.974 ± 0.024.
With CCTATGGTAG, the switch fluorescence ratio is 1.014 ± 0.0099.
Regarding CCTATTATTG, the switch fluorescence ratio stood at 0.98 ± 0.028.
The same measure for CCTATTGTAT: 1.02 ± 0.033; for CCTATTGTGG: 0.993 ± 0.015; for CCTATTTGTA: 0.974 ± 0.051.
As for CCTCAAAGGG, the switch fluorescence ratio was 1.38 ± 0.18.
The result for CCTCGCTGAG reads 3.48 ± 0.98; that for CCTCGGGGGT, 1.02 ± 0.04; that for CCTCGGGTTA, 1.42 ± 0.038.
The same measure for CCTCTATATT: 1.181 ± 0.011; for CCTCTTTTTG: 1.02 ± 0.011.
With CCTGAAGACA, the switch fluorescence ratio worked out at 1 ± 0.02.
For CCTGAGGGAC, the switch fluorescence ratio amounted to 0.99 ± 0.03.
The result for CCTGAGGGGA reads 1.16 ± 0.2; that for CCTGAGGTTA, 1.03 ± 0.096.
The same measure for CCTGATCACC: 1.063 ± 0.0098.
The same measure for CCTGATGGTA: 1.03 ± 0.025; for CCTGATTTGG: 0.969 ± 0.03; for CCTGCAAACA: 2.22 ± 0.17.
Turning to CCTGCAGTTT, the switch fluorescence ratio is 1.04 ± 0.019.
On to CCTGCGCACG, for which the switch fluorescence ratio amounted to 3.98 ± 0.93.
The result for CCTGCTTGGT reads 1.029 ± 0.0082; that for CCTGCTTTGG, 1.07 ± 0.083; that for CCTGGCGCCA, 1.006 ± 0.0021.
The same measure for CCTGGGACCA: 0.975 ± 0.0064.
The same measure for CCTGGGAGCA: 1.08 ± 0.057; for CCTGGGAGTG: 0.999 ± 0.035; for CCTGGGGATA: 1.04 ± 0.024.
As to CCTGGGGCGT, the switch fluorescence ratio worked out at 1.06 ± 0.12.
The same measure for CCTGGGGCTA: 1.25 ± 0.021; for CCTGGGGCTT: 1.03 ± 0.033; for CCTGGGGGGC: 1.09 ± 0.18.
Turning to CCTGGGGGTA, the switch fluorescence ratio was determined as 1.04 ± 0.024.
The result for CCTGGGGTAA reads 1.09 ± 0.039.
Turning to CCTGGGGTGT, the switch fluorescence ratio worked out at 1.34 ± 0.28.
The same measure for CCTGGTACTG: 1.05 ± 0.015.
The result for CCTGTAAGCT reads 1.3 ± 0.077.
CCTGTAATTG: the switch fluorescence ratio was found to be 1.03 ± 0.031.
The result for CCTGTACGGA reads 1.004 ± 0.0067; that for CCTGTGTGAC, 1.344 ± 0.013; that for CCTGTTTGAG, 1.04 ± 0.11.
The same measure for CCTTACCTTG: 1.04 ± 0.041.
The result for CCTTATTTTG reads 1.05 ± 0.065; that for CCTTCAGAGG, 1.12 ± 0.033.
Take CCTTCCGGGG: the switch fluorescence ratio is 2.07 ± 0.23.
As to CCTTCTCGTC, the switch fluorescence ratio came out at 1.34 ± 0.096.
The result for CCTTGATCTG reads 1.06 ± 0.02.
Regarding CCTTGCCCTT, the switch fluorescence ratio came to 1.03 ± 0.014.
The same measure for CCTTGGAACG: 1.03 ± 0.011.
The result for CCTTGGCGCG reads 0.995 ± 0.035.
The same measure for CCTTGGCTTT: 1.53 ± 0.11.
On to CCTTTAGATG, for which the switch fluorescence ratio amounted to 1.03 ± 0.04.
The same measure for CCTTTAGGGG: 0.997 ± 0.037; for CCTTTATGGC: 0.947 ± 0.029.
The result for CCTTTATTTA reads 0.986 ± 0.026; that for CCTTTGGAAT, 1.16 ± 0.031.
The same measure for CCTTTTGGGC: 0.97636 ± 3.3e-05; for CCTTTTGTTA: 0.989 ± 0.02; for CCTTTTTGGT: 1.016 ± 0.01.
As to CCTTTTTTGG, the switch fluorescence ratio stood at 1.02 ± 0.021.
The same measure for CCTTTTTTTG: 1.01 ± 0.024; for CGAAAAAAAA: 0.948 ± 0.062; for CGAAAAAAGA: 1.05 ± 0.12.
